The supplement of paper PMC6757056
± gives the standard deviation of the averaged measurements.

B1: library; a variant is named by its letters at N, in order (parent)
chain: GCUGUCACCGGUGUAUUACCCUAGUGGUCGACCGGUCUGAUGAGUCUNNNNNNAGACGAAACAGC

Columns and labels:
[1] = variants of: B1; assay: FACS-Seq fitted mean relative fluorescence mCherry/BFP without ligand (log10 relative fluorescence); ligand: hypoxanthine (xanthine aptamer); higher = higher reporter protein expression; details: HEK293T, ligand present: no
Method in brief: (§1)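 Enriched HEK293T cells carrying, by lentivirus, an mCherry reporter with the ribozyme switch and an EF1α-BFP marker spent 48 h with or without ligand and were sorted into 6 bins by mCherry/BFP. MiSeq sequencing of PCR-amplified bin genomic DNA gave bin counts. Fluorescence was calculated as the fitted normal mean of those counts. Counts were binned on log10(mCherry/BFP), and means were scaled to five spiked-in control ribozymes.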

[2] = variants of: B1; assay: normalized RNA/DNA level with ligand (relative to sTRSVctl = 100) (log10 (% of sTRSVctl)); ligand: hypoxanthine (xanthine aptamer); higher = less ribozyme self-cleavage, higher mRNA level; details: ligand concentration (+) RNA-Seq: 5 mM, HEK293T, reporter: mCherry (pCS4076), ligand present: yes
Method in brief: (§2)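 Ribozyme switch library plasmids with mCherry reporters (eGFP in certain ligand experiments) went into HEK293T cells at 4 µg per 6-well well. Where ligand was used, it was applied 1 h before transfection, and total RNA was extracted with EDTA 72 h later for reverse transcription, amplification, barcoding and sequencing. RNA level is the RNA-to-DNA read ratio normalized to a spiked-in non-cleaving sequence or to the leading sequences, then scaled and log-transformed. Scaling was ×100 with log10, the leading set comprised 25 sequences, and the cutoff was ≥100 DNA reads.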

[3] = variants of: B1; assay: normalized RNA/DNA level without ligand (relative to sTRSVctl = 100) (log10 (% of sTRSVctl)); ligand: hypoxanthine (xanthine aptamer); higher = less ribozyme self-cleavage, higher mRNA level; details: HEK293T, reporter: mCherry (pCS4076), ligand present: no
Method in brief: as §2

[4] = variants of: B1; assay: FACS-Seq fitted mean relative fluorescence mCherry/BFP with ligand (log10 relative fluorescence); ligand: hypoxanthine (xanthine aptamer); ligand concentration (+) FACS-Seq: 5 mM; higher = higher reporter protein expression; details: HEK293T, ligand present: yes
Method in brief: as §1

Row | Variant | FACS-Seq fitted mean (log10) [1] | normalized RNA/DNA level with ligand (log10) [2] | normalized RNA/DNA level without ligand (log10) [3] | FACS-Seq fitted mean (log10) [4]
1 | AGACUC | 0.486 ± 0.012 | 1.944 ± 0.016 | 1.94 ± 0.034 | 0.646 ± 0.01
2 | AGACUU | 0.58 ± 0.039 | 1.946 ± 0.008 | 1.9 ± 0.021 | 0.5558 ± 0.0047
3 | GCUUCG | 0.0523 ± 0.089 | 1.929 ± 0.006 | 1.59 ± 0.029 | 0.504 ± 0.069
4 | AGACCC | 0.552 ± 0.035 | 1.94 ± 0.0097 | 1.92 ± 0.02 | 0.516 ± 0.11
5 | AGACGU | 0.722 ± 0.019 | 1.9 ± 0.043 | 1.59 ± 0.03 | 0.696 ± 0.067
6 | AGACGG | 0.689 ± 0.072 | 1.81 ± 0.044 | 1.3085 ± 0.0012 | 0.834 ± 0.073
7 | AGACGA | 0.525 ± 0.066 | 1.95 ± 0.049 | 1.62 ± 0.025 | 0.546 ± 0.049
8 | UGAGCC | 0.846 ± 0.017 | 2.003 ± 0.02 | 1.94 ± 0.051 | 0.805 ± 0.11
9 | UGAGCG | 0.3069 ± 0.0029 | 1.9 ± 0.049 | 1.7 ± 0.043 | 0.323 ± 0.026
10 | AGAAUG | -0.0981 ± 0.019 | 1.86 ± 0.034 | 1.42 ± 0.058 | -0.0321 ± 0.076
11 | UCUUGA | 0.296 ± 0.011 | 1.94 ± 0.035 | 1.51 ± 0.036 | 0.572 ± 0.0065
12 | GGAAGA | 0.0989 ± 0.032 | 1.89 ± 0.045 | 1.45 ± 0.032 | 0.576 ± 0.039
13 | GGAAGG | -0.0545 ± 0.055 | 1.81 ± 0.03 | 1.29 ± 0.068 | 0.241 ± 0.04
14 | GGAAGC | 0.167 ± 0.013 | 1.77 ± 0.033 | 1.297 ± 0.0033 | 0.358 ± 0.042
15 | CCUAUA | 0.827 ± 0.019 | 1.945 ± 0.016 | 1.83 ± 0.029 | 0.508 ± 0.074
16 | CCUGCG | -0.205 ± 0.019 | 1.98 ± 0.015 | 1.86 ± 0.0037 | -0.2206 ± 0.00099
17 | GCUCAA | 0.9407 ± 0.005 | 1.92 ± 0.041 | 1.71 ± 0.076 | 0.495 ± 0.11
18 | ACUGAC | 0.249 ± 0.034 | 1.95 ± 0.11 | 1.835 ± 0.014 | 0.347 ± 0.1
19 | ACUGAU | 0.247 ± 0.08 | 1.92 ± 0.053 | 1.67 ± 0.026 | 0.431 ± 0.058
20 | ACUGAA | 0.038 ± 0.062 | 1.92 ± 0.079 | 1.737 ± 0.0053 | 0.0938 ± 0.16
21 | ACUGAG | 0.241 ± 0.019 | 1.818 ± 0.015 | 1.37 ± 0.04 | 0.673 ± 0.028
22 | ACUAGA | 0.305 ± 0.02 | 1.919 ± 0.0065 | 1.73 ± 0.032 | 0.429 ± 0.0044
23 | ACUAGG | 0.706 ± 0.049 | 1.8318 ± 0.00012 | 1.424 ± 0.009 | 0.657 ± 0.03
24 | GCUGGC | 0.495 ± 0.075 | 1.85 ± 0.12 | 1.78 ± 0.038 | 0.468 ± 0.018

Row | Variant | FACS-Seq fitted mean (log10) [1] | normalized RNA/DNA level with ligand (log10) [2] | normalized RNA/DNA level without ligand (log10) [3] | FACS-Seq fitted mean (log10) [4]
25 | GCUGGG | 0.121 ± 0.13 | 1.94 ± 0.0053 | 1.55 ± 0.083 | 0.547 ± 0.091
26 | GCUUAG | 0.401 ± 0.077 | 1.83 ± 0.05 | 1.4 ± 0.025 | 0.791 ± 0.096
27 | GCUUAA | 0.221 ± 0.11 | 1.92 ± 0.047 | 1.79 ± 0.036 | 0.508 ± 0.0091
28 | UCUCAG | 0.173 ± 0.045 | 1.82 ± 0.061 | 1.34 ± 0.038 | 0.474 ± 0.094
29 | GCUGAA | 0.332 ± 0.011 | 1.91 ± 0.032 | 1.76 ± 0.038 | 0.43 ± 0.092
30 | GCUGAU | 0.294 ± 0.021 | 1.97 ± 0.029 | 1.776 ± 0.014 | 0.376 ± 0.054
31 | ACUGCG | 0.125 ± 0.0038 | 1.92 ± 0.03 | 1.458 ± 0.013 | 0.557 ± 0.019
32 | ACUGCA | 0.637 ± 0.031 | 1.96 ± 0.028 | 1.83 ± 0.074 | 0.478 ± 0.012
33 | GCUAUU | 0.263 ± 0.011 | 1.927 ± 0.011 | 1.89 ± 0.004 | 0.412 ± 0.06
34 | GCUAUG | 0.086 ± 0.067 | 1.86 ± 0.025 | 1.36 ± 0.065 | 0.318 ± 0.022
35 | UGACGA | 0.285 ± 0.037 | 1.94 ± 0.023 | 1.581 ± 0.0051 | 0.593 ± 0.023
36 | UGACGG | 0.484 ± 0.018 | 1.9 ± 0.022 | 1.486 ± 0.01 | 0.646 ± 0.032
37 | UGACGU | -0.0405 ± 0.16 | 1.91 ± 0.021 | 1.57 ± 0.064 | 0.226 ± 0.05
38 | GCUCGG | 0.247 ± 0.027 | 1.88 ± 0.074 | 1.4 ± 0.022 | 0.851 ± 0.056
39 | GCUCGA | 0.14 ± 0.0058 | 1.92 ± 0.02 | 1.67 ± 0.088 | 0.526 ± 0.025
40 | ACUCGG | 0.949 ± 0.075 | 1.87 ± 0.042 | 1.44 ± 0.12 | 0.651 ± 0.2
41 | ACUCGA | 0.714 ± 0.029 | 1.958 ± 0.017 | 1.74 ± 0.043 | 0.665 ± 0.029
42 | GGACGA | 0.478 ± 0.053 | 1.904 ± 0.015 | 1.64 ± 0.031 | 0.693 ± 0.025
43 | GGACGG | 0.346 ± 0.049 | 1.81 ± 0.035 | 1.42 ± 0.016 | 0.584 ± 0.054
44 | GCUGCG | 0.192 ± 0.0063 | 1.92 ± 0.057 | 1.6 ± 0.023 | 0.503 ± 0.0077
45 | UCUGAA | 0.338 ± 0.025 | 1.951 ± 0.0066 | 1.68 ± 0.04 | 0.512 ± 0.022
46 | UCUAAU | 0.308 ± 0.028 | 1.92 ± 0.022 | 1.79 ± 0.039 | 0.511 ± 0.032
47 | AGAAGG | 0.227 ± 0.0085 | 1.85 ± 0.051 | 1.42 ± 0.044 | 0.463 ± 0.011
48 | AGAAGA | 0.156 ± 0.021 | 1.92 ± 0.029 | 1.525 ± 0.013 | 0.466 ± 0.016

Row | Variant | FACS-Seq fitted mean (log10) [1] | normalized RNA/DNA level with ligand (log10) [2] | normalized RNA/DNA level without ligand (log10) [3] | FACS-Seq fitted mean (log10) [4]
49 | GGAAAA | -0.00225 ± 0.06 | 1.925 ± 0.018 | 1.686 ± 0.006 | 0.168 ± 0.059
50 | GGAAAG | 0.282 ± 0.038 | 1.8 ± 0.018 | 1.34 ± 0.094 | 0.711 ± 0.029
51 | UCUUUA | 0.261 ± 0.0068 | 1.958 ± 0.004 | 1.9 ± 0.085 | 0.327 ± 0.02
52 | CCUGUG | 0.676 ± 0.039 | 1.97 ± 0.026 | 1.86 ± 0.051 | 0.685 ± 0.086
53 | CCUGUA | 0.473 ± 0.019 | 1.892 ± 0.015 | 1.89 ± 0.041 | 0.515 ± 0.006
54 | AGAGAU | 0.123 ± 0.09 | 1.85 ± 0.052 | 1.731 ± 0.0098 | -0.481 ± 0.049
55 | AGAGAG | 0.482 ± 0.014 | 1.75 ± 0.036 | 1.32 ± 0.069 | 0.443 ± 0.038
56 | AGAGAA | 0.479 ± 0.04 | 1.882 ± 0.0051 | 1.69 ± 0.047 | 0.467 ± 0.0095
57 | CGAAGA | 0.445 ± 0.018 | 1.97 ± 0.061 | 1.72 ± 0.049 | 0.65 ± 0.062
58 | CGAAGG | 0.0138 ± 0.042 | 1.806 ± 0.015 | 1.4 ± 0.13 | 0.39 ± 0.041
59 | CCUACA | 0.617 ± 0.024 | 1.975 ± 0.01 | 1.9 ± 0.015 | 0.603 ± 0.01
60 | ACUACG | 0.398 ± 0.086 | 1.93 ± 0.071 | 1.471 ± 0.0099 | 0.666 ± 0.077
61 | ACUACU | 0.265 ± 0.031 | 1.93 ± 0.069 | 1.821 ± 0.01 | 0.443 ± 0.046
62 | ACUUCG | 0.592 ± 0.03 | 1.9 ± 0.024 | 1.6 ± 0.1 | 0.766 ± 0.1
63 | GGAAUU | 0.904 ± 0.078 | 1.955 ± 0.011 | 1.89 ± 0.045 | 0.815 ± 0.039
64 | GGAAUG | -0.159 ± 0.068 | 1.842 ± 0.0069 | 1.34 ± 0.03 | -0.507 ± 0.2
65 | GGAAUA | 0.68 ± 0.044 | 1.9527 ± 0.00026 | 1.78 ± 0.028 | 0.588 ± 0.045
66 | UGAAAC | -0.0117 ± 0.11 | 1.91 ± 0.027 | 1.81 ± 0.059 | 0.2594 ± 0.0017
67 | CGAACC | 0.676 ± 0.041 | 1.94 ± 0.035 | 1.89 ± 0.02 | 0.635 ± 0.062
68 | ACUUAA | 0.504 ± 0.046 | 1.933 ± 0.0065 | 1.787 ± 0.01 | 0.596 ± 0.075
69 | ACUUAG | 0.227 ± 0.048 | 1.81 ± 0.025 | 1.52 ± 0.061 | 0.503 ± 0.042
70 | UGAAGU | 0.226 ± 0.04 | 1.87 ± 0.037 | 1.555 ± 0.012 | 0.496 ± 0.012
71 | UGAAGA | 0.306 ± 0.01 | 1.896 ± 0.015 | 1.55 ± 0.025 | 0.576 ± 0.08
72 | GGACCG | 0.219 ± 0.056 | 1.97 ± 0.03 | 1.79 ± 0.0033 | 0.447 ± 0.027
